Reference: a protein production outcome set (Wang et al. 2014)

Experiment: label from the status in PepcDB records

| Sequence | protein production |
| --- | --- |
| MQVSQANLNLNFDANSLQRGKRYFSQGRVQNLVRETEGMSIQVLRAEVSGSQRQLYITEVRFDRYLPGKINTFCSCPVGFRCKHAAAVILQANHEAGLSAEKYESEADTRYKYPTAETWLEQAASVFSSIDNASNPECLAYLLHIEPHRSQQTLSVNKVRRRKSGEYSRGSKTTVWSRTNLEYDRPKYLRESDIAPLTWLNALPTAFRVSPVLEGTTGAYFIESALKTRRFFLESTQNPPLQLGETLESGFEWMQLPDKQHWQLVSKALPSHIRLLNTSPAYYLDEKELLIGRVENSLDARTTALLQQCPPLAESQLQQALPDLAPILEKAGAVLPESFQVPSMVQAAPQPILQLYSLQHPAPGTLPLLMARLMFSYEGHRVAFSEQEPRVLVDGNNGPLLVIRDEDAEIEWLHRDLPDFKMAGTMTDHLEADMVNALPYGSFLDFTLPTRNQWLDFIAFDLPRLDAGGWQIEMDESFDIPVIEIDQLHGSLKPDEESPGWFDVEVGIDYNGTQIDLIPLLQQALVYLDLNNDSDDALPETLWLHNGDALIRVVSDRIRPLVRTLLSLLGKERGGKLRLPKLDAAQVMGDLAADWQCSAELRNLSEKLTSFQALNHVPVPSEVRAELRHYQQDGLNWLMFLREFGLGGVLADDMGLGKTLQTLACIQAEKTAGRLTAPALVVCPTTLIANWEAEAEKFTPGLKRLVIHGQRRKPFFDMVAEADLVITSYPLLHRDLEQHQNQSYSLAFFDEAQHLKNPATVTSKAARRLPAENRIALTGTPMENHLGELWALFDLILPGYLADQKIFREHYRKPIEEQGNQSRYAELSRRVRPFMLRRTKDQVTPELPEKTEIVRHVELNRQQKDLYETIRATMDKRIRKLLAEKGAARSQIEILDALLKLRQICCHPALLNPEETAGSAKLDSLMEMLEQLLDEGRKVIIFSQFTSMLALIETTLKAAGIGYEKLTGQTRDRATPVKRFQNGESPVFLISLKAGGTGLNLTAADCVIHYDPWWNPAAEQQATDRAWRIGQDKPVFVYRLITEGTVEERIQALQARKSQLADGLYGKADTFSSAITADDISVLFEK | failed |
| MQYATLELNNAFKVLFSLRQVQAAEMVIAPGDREGGPDNRHRGADQWLFVVDGAGEAIVDGHTQALQAGSLIAIERGQAHEIRNTGDTPLKTVNFYHPPAYDAQGEPLPAGEG | not failed |
| MQYLIVKYSHQIFVTITILVFNIRFFLLWKNPEKPLAGFWKALPHLNDTMLLFTGLWLMKITHFSPFNAPWLGTKILLLLAYIALGMMMMRARPRSTKFYTVYLLAMCCVACIVYLAKTKVLPF | failed |
| MRAALTGGGLVLAYTAVISSADAITKLIAQGYAAPQLYAISGLIVAAISLAAARRNRARALKTVCPRAMALRALATVVASLCFFHTFRLLPFADVFVFIGLMPIMAALMSGLMLDEHARPAAWAALVAGFVGVLCLMPGGIGAIGAGHLWALGGVVTGTFSLILSRYIGRYESNALAQVFYPNLALGLSMAAALPFVWVPMPMLDLAWVGAYAALLFLARWLLVIALRLLAAYVVTPLLNLQFVWMVALGALAFGEWPAPMTWLGAAIVMVSGLYLIWDQMTPTTREQEELSLRTDP | failed |
| MRAFDAYKILDEQEAGSLIDLIAPCMDDYLYIIDLKNDTLRISQSAVERFMLPDKFMNDATKHLRTLVYEKDRKLLENHKRKIYDGKEKRYNVLCRLMNSKNLPVWINCRGEVINDEAGKPRYIIGCMNETGTRQRADNISGLLGEKEMASYLYSQPKEKLSGYFIQIGIDDFGIINNVQGQIYGNYILKRVAECIAECLSSGQRIYHLVTDKYMLVDMLSKSQDDVVQLFKRIGEKIDEFIVDENYKSIFSISAGVTDISTLAEDAIECRKKSDFSLKCAKKRGGGSLYFFEEEDYKVSLRKNTILSALRSATVNDFEGFEVYYQPILDSADRIIGAEALLRFFMHSDEGDEMISPVEFIPLLEKSRLIIPVGEFVLNEAAKMCREMQQYIADFRVNINVSYIQIMRGSMANKILTAIRANNLRPESICIEMTESGFMDMTPCFCSFRKKLDENNIQFIIDDFGTGYSNLRYISEMNPDYVKIDKDFTARAMSSEKDYELFRKIIEMVHSINIKICIEGIEKEEWACAMKEIHVDYMQGYLYGRPCEKGVFLNNYGI | failed |
| MRAFFNSSMREKLSQLKARQQKQEMPANLSIIHALRATQEGFEDDGVMRNYDLLESQFKENLTKEDRELLESPKPNLEKLQELKIRLLEKNGIFKPPKQKSQISLVFGMNALVPLGTIKTL | failed |
| MRAFPFFRPVLAQLMKHRVAQESTRRWLDRIIQIIKYAYCQKLRRHFCQATLWKMIQLIVNGQSQLVPSPDSGTDSGTTNDARLNIRQLLEHMGLQGKRIAVERNGEIVPRSQFDQPMLASGDKLEIVVAVGGGLEHHHHHH | failed |
| MRASSSQGTPMNTALHDNREVVTVCLQHKVLDGSPGTPAAQPPRWKQALLTYLVICPMTMVIPQLLAPLFARFPQLGGVITGNLIVNLFVILPVVFYIMPWVTRRCANWLRG | failed |
| MRCPGCGAAIQFDDPKKPGYIPREVFEKRLEEGKEILCQRCFRMKHYGKLEPVEFDWDFKNQLKSYLGGFDVVVWVIDIFDFEGTYREDIAEILKGKRVIYVINKIDLLPRAVTVKEIKEWVKKRIKTKNTDDIRIVSAEKNFGLTSLVKYLSRLTDKALVVGVTNVGKSSLLNKICTHENTISPFPGTTLGILKRKVKEANLYLYDTPGIMTSDRILDLLDPECQKRVLPREELSRKTFKPDNGRTIFMGGLCRFDIHFETEKNPIFLLFSSKEVTFHETRRERADELMRNRLGDLLIPPCSKTKFENFKWKRETFTLKEGEELAVAGLGWMSVRRGPFTVEVTVPDSVKLVVREALVNPKRLEHHHHHH | not failed |
| MRCTRLEARRMLSHINENQQPQMVDISEKAVSDRRAVAEALIELPPVFQAYVQGGDLFLKKGPVVQTAIIAGTMAVKRTAEVIPFCHPLPITSCRFETDIESQESGLRIRLRCEVKTCDRTGVEMESLHGVAIAALTIYDMAKALSPHIVIREVRLLAKSGGKKTLGQYPLYGLVLTGGQSQRMGQAKALLDYYGEPHAQYLYNLLAQSCEQVFLSAQPNQWQGTPLADLPTLPDILPQIGPIAGILTALRAYPQVNWLVVACDLPYLTTETLAPLLHHYREDVVATCYHHPQEGFPEPLCAIYTPQALPVFEAAYAEGIYCPVKILQRSPCQRIAPPQPTITANINTPEEYHEALHHVRRP | failed |
| MRDFLKLLKKHDELKIIDTPLEVDLEIAHLAYIEAKKPNGGKALLFTQPIRKEHDQIKTFGMPVLMNAFGSFKRLDLLLKTPIESLQQRMQAFLHFNAPKNFTEGLKVLKDLWDLRHIFPKKTTRPKDLIIKQDKEVNLLDLPVLKTWEKDGGAFITMGQVYTQSLDHQKKNLGMYRLQVYDKNHLGLHWQIHKDSQLFFHEYAKAKVKMPVSIAIGGDLLYTWCATAPLPYGIYELMLYGFMRGKKARVMPCLSNSLSVPSDCDIVIEGFVDCEKLELEGPFGDHTGYYTPIEPYPVLEVKTISYKKDSIYLATVVGKPPLEDKYMGYLTERLFLPLLQMNAPNLIEYYMPENGVFHNLILAKIHTRYNAHAKQVMHAFWGVGQMSFVKHAIFVNEDAPNLRDTNAIIEYILENFSKENALISQGVCDALDHASPEYAMGGKLGIDATSKSNTPYPTLLNDSALLALLQDKMQNIVLLKQYYPHTRNPICVISVEKKDKSVIELAKNLLGFEEHLRIVIFVEHASNDLNNPYMLLWRIVNNIDARRDILTSKHCFFIDATNKGVMDKHFREWPTETNCSMEVIENLKKKGLLKDFETLNQKFHLTHSFSTHKEDL | failed |
| MRDHVEIGIGREARRTYSLDDISVVSSRRTRSSKDVDTTWHIDAYKFDLPFMNHPSDALASPEFVIEMGKQGGLGVINAEGLWGRHADLDEAIAKVIAAYEEGDQAAATRTLQELHAAPLDTELLSERIAQVRDSGEIVAVRVSPQNVREIAPIVIKAGADLLVIQGTLISAEHVNTGGEALNLKEFIGSLDVPVIAGGVNDYTTALHMMRTGAVGIIVGGGENTNSLALGMEVSMATAIADVAAARRDYLDETGGRYVHIIADGSIENSGDVVKAIACGADAVVLGSPLARAEEAAGKGYFWPAVAAHPRFPRGVVTESVDLDEAAPSLEQILHGPSTMPWGVENFEGGLKRALAKCGYTDLKSFQKVSLHVN | not failed |
| MRDIPLLIPILLILFVSLGLARVKTILVVGAFSLFFVYGYLKGENIGTPRRRIEVNDDVFSVMLILSVIIILIQIANLRGIPLLHPHLRTHLNPKLTGLTYFLGLPSSVYLIIRGKKLGFLYPLMVALYAYRTPVLVALIALTLPYLEDMKKGKKAVEIGVIGIFLLFLISYFRGSLSFLTRIQGTTSVLDVIVKRCSVVGFYKGELQLAGVKSYIFGGLGPRTMIARYLGIPGVTITATLIGGMYLDFGLLSSLEMLLLGFYYGIMKKLRSDVGRSFYYSTLSYGIVGVETGILDLPVYLMILVGLLIAWREFDGNLRKDIRRIISWISSSSNNW | failed |
| MREEQVSDCGSITLEEWNGSSSTKLFKTATITASSSLSIQRSANRFNHVWRRVLQAFVPEASGFPGSVTPDYVGFQLWDTLQGLSTYTKMMLSTQALLSAIGVGEKSATVIGATFQWFLRDFTGMLGGILFTFYQGSNLDSNAKMWRLVADLMNDIAGVASGATRAALTQHFALQDNAADISAKEGSQETMATMMGMSLGMLLARFTSGNPMAIWLSFLSLTVFHMYVLSPEQVSSMEGVLPLWATSLRSTNSKPLHKRVQLGVRVSSLPRLDMLQLLNGVGASSYKNAKYLLAHIKGNVSVILHKDSKPADVLKSYIHAIVLANLMEKSTSFYSEGEAWIDKHYDELLHKVRLNH | failed |
| MREHLKLFSLIFSYPDEDKLGKAIALAEGIGLTEIAQTLKQVDIEALQVEYTSLFISSHPSVPCPPYQSYFEEGSVYGKASLRAAELYSKYGLNYVYESEPPDHISVELEFLSMNPELLSDFRDWFLEFAKCVEEKSEIYATFARAFRKFLEKPSKVQS | not failed |
| MRENIIEFIPKEKPCSYLKEERSLFRYFHIEECSSDLYQALLERGWRRFGKYFFVPICKNCKACLSVRKPLANLEFSRSFKRVLSKNRQTGLVIQRPMITEAHLKLYDRYHRRMSEKKGWEYSPITMESYYEMFVEGSGEFGYEFAYYRDERLVGIALVDILERSLSAVYCFYDHDYSDFSLGIFSILKQLELAKRLKIDYFYPGYWIKNHPSMGYKERFAPYEILRNEPDIDALPEWSLQGENE | failed |
| MREQLRAHGIGPNDIHTLLLSHFHADHIAGLRDFPRARILASEPGWRAVRGLSGLAAVRQAFLPGLLPPDMESRLSFVEAFALQALPADLAPFSHGRDVSGCGEVFVVDLPGHAAGHLGAFVLGDAGWTLLASDAAWSEEGYREMRGPSELSFLVQHSRRSYYDTLARLHALHRGGRVDILLTHQEETPCLEHHHHHH | failed |
| MRERFDVVIAGAGPAGAQCARDLAERNYEVLVLESEPEDGFPRQSNKSTAGTFMSAMTGFAIPDDVVMNYTDNVVLESPNDHYVRNQTGAVLEFAEFKQWLVSEGRDKGATYRFDSRVSAPIMENGEIVGVRYDGDEEVYADIVIDATGPAAPLAKELDVCNLQRNHQAIGVEYEFEGVEVDHDDYADLRDAMMLRLDHDLAPGGYSWIFHTGEDTAKVGLCYIQNGSHQKYAKDGMGIDDYLEYWLDSDPRFDDAERIEGTQAHRGSAHIQPPDSMSTDNFMAIGDTVPTVDPLWGEGIHKGMKSARAAAATADSALKPDEPDTSAENLSVYDQLWHSEVAPKHNARLMMTELLYLAPNERYDQLMDDLRSTGQDTLRQINGGDRRAIAKLTHLSDMPILVEYARRRLDILEHHHHHH | failed |
| MRERKKYGKHIPKSLSSKINKRKLIQKNICTNYKTIKIIDIYENLPYNQLNNGRTKIKEIILANDVLVVLLISGISRAYNMINGEFLCEINPNNFSVVHTIVYNSYNNTLIIAYASFPAHLQCKVIDCNDLKHGITNSSKLGILFGT | failed |
| MREVKLVTFDVWNTLLDLNIMLDEFSHQLAKISGLHIKDVANAVIEVRNEIKKMRAQASEDPRKVLTGSQEALAGKLKVDVELVKRATARAILNVDESLVLEGTKEALQFVKERGLKTAVIGNVMFWPGSYTRLLLERFGLMEFIDKTFFADEVLSYKPRKEMFEKVLNSFEVKPEESLHIGDTYAEDYQGARKVGMWAVWINQEGDKVRKLEERGFEIPSIANLKDVIELISKT | not failed |
